Laboratory results published in patent publication US20240272170A1 (QUANTUM SI, published 2024).

Columns and labels:
[1] = molecular target: T1, QP1165 after cleavage to N-terminal leucine (LKQRVWK); experiment: on-chip dynamic sequencing of QP1165, PS1875 run, trace Aperture=1377116
T1 peptide: LKQRVWK
Experimental: (§1) The semiconductor chip was placed in the sequencing device and a chip check was performed to test electronic circuit function and to optimize laser coupling alignment. The chip was then removed from the device socket and the chip was washed twice with 50 μL of 70% isopropanol, followed by four washes with 30 μL of wash buffer (50 mM MOPS pH 8.0, 60 mM potassium acetate, 50 mM glucose, 20 mM magnesium acetate, and surfactant mix) through a flow cell attached to the chip. A second chip check was then performed. The laser was then blocked via an integrated software-controlled shutter, peptide complex was added to a final concentration of 1-10 nM and mixed thoroughly, and the chip was incubated for 15 min. The chip was then washed six times with wash buffer, followed by addition of an imaging solution (wash buffer with 5 mM Trolox and an oxygen scavenging system). The laser was unblocked and the occupancy percentage (target 10-30%, Poisson distributed) was recorded by acquiring a photobleaching signal from a fluorophore attached to the peptide complex during 5 min of laser illumination. […] Data was recorded for 15 min. The laser was then blocked briefly and aminopeptidases were added to the sequencing reaction via the flow cell and mixed thoroughly (final concentration 2-8 μM PhTET2 and/or 20-80 μM PhTET3, as indicated according to the experiment). The laser was then unblocked, and data was recorded for 10 hours. For all runs, 30 μL of mineral oil was added to fluid reservoirs at each port of the flow cell to prevent evaporation during the run.

[2] = molecular target: T1, QP1165 after cleavage to N-terminal …; experiment: on-chip dynamic sequencing of QP1165, 500 nM PS1875 plus five recognizers, 11565 alignments
Experimental: as §1

[3] = molecular target: T2, QP1165 after cleavage to N-terminal isoleucine (IAFLKQRVWK); experiment: as above
T2 peptide: IAFLKQRVWK
Experimental: as §1

[4] = molecular target: T2, QP1165 after cleavage to N-terminal …; experiment: on-chip dynamic sequencing of QP1165, PS2132 run, trace Aperture=376215
[5] = molecular target: T2, QP1165 after cleavage to N-terminal …; experiment: on-chip dynamic sequencing of QP1165, PS1875 run, trace Aperture=1311609

B1: PS1223 (designed binder)
single polypeptide, two PS961 units in tandem: MPTAASATESAIEDTPAPARPEVDGRTKPKRQPRYHVVLWDDDDHTYQYVVVMLRSLFGHPPSRGYRMAKEMDTQGRVIVLTTTREHAELKRDQIHAFGRDRLLARSKGSMKASIEAEEGSAGSAAGSGEFGSAGSAAGSGEFGSAGSAAGSGEFMPTAASATESAIEDTPAPARPEVDGRTKPKRQPRYHVVLWDDDDHTYQYVVVMLRSLFGHPPSRGYRMAKEMDTQGRVIVLTTTREHAELKRDQIHAFGRDRLLARSKGSMKASIEAEE
notes: dye-labelled recognizer for N-terminal L, I, V in the six-recognizer runs; also called PS1223 (LIV)
B1 was tested, and the “PD of a recognition segment in an example trace” value (“PD of a recognition segment” below) [1] was 0.68 s, the “IPD (interpulse duration)” value [2] was 17.1 s and the “PD (pulse duration)” value [2] was 0.59 s. For the same binder, the “IPD (interpulse duration)” value [3] was 8.79 s, the “PD (pulse duration)” value [3] was 1.01 s and the “PD of a recognition segment” value [4] was 0.49 s. For the same binder, the “PD of a recognition segment” value [5] was 0.61 s.
